Legend:
[1] = target: T1, streptavidin-Cy3 from Streptomyces avidinii (S6420 SIGMA-ALDRICH) (Streptomyces avidinii, UniProt P22629 37-163, limits assumed, Cy3 label); assay: microarray on maleimide glass carrying the protein G variant, fluorescence scanner
T1 construct: Control protein of the microarray experiment; also called control
Experimental: A glass surface was immersed in a piranha solution (sulfuric acid:hydrogen peroxide, 3:1 v/v) and allowed to react in an oven at 90° C. for 20 minutes. After the reaction, the glass surface was washed with water and ethanol, and then was immersed in ethanol containing 1% APTS ((3-Aminopropyl)trimethoxysilane, 09326, SIGMA-ALDRICH) for 15 to 20 minutes to react, so as to provide an aminated surface. After completion of the reaction, the glass surface was washed with ethanol, and subsequently heated in an oven at 100° C. until the time of use. The prepared aminated surface was immersed in a 10 mM solution of BMPS (N-[b-Maleimidopropyloxy]succinimide ester, 22298, PIERCE, USA) dissolved in DMSO (dimethyl sulfoxide, D2650, SIGMA-ALDRICH) to react for about 30 minutes. The maleimide groups provided on the final glass surface, which groups would be covalently bonded to SH groups, were reacted with Streptococcal protein G variants tagged with one, two or three cysteine residues on the glass surface to immobilize the protein. On the surface where a series of Streptococcal protein G variants were immobilized, an antibody labeled with a fluorescent labeling substance, monoclonal anti-biotin Cy3 (C5585, SIGMA-ALDRICH), and a control, streptavidin-Cy3 (streptavidin-Cy3 from Streptomyces avidinii, S6420 SIGMA-ALDRICH) were arranged into an array using a microarrayer, and then the degree of specific protein binding and the effect of non-specific binding were measured using a fluorescence scanner. As a result, no fluorescent signal of Streptavidin-Cy3 (1 mg/ml) was detected, and since the fluorescent signal increased with an increase in the concentration of the antibody, Monoclonal anti-biotin Cy3, it was confirmed that the antibody reactions with Streptococcal protein G variants tagged with one, two and three cysteine residues were specifically achieved. Also, when the antibody was reacted after allowing the Streptococcal protein G variants to react at the same concentration, the reaction occurred at a low concentration of the antibody with a high binding power. […]

human IgG (Sigma) = target: T2, human IgG (Sigma) (human); assay: SPR (BIAcore); protein G variant layer on gold thin film, human IgG 100 ug/ml injected
T2 construct: also called human antibody; antibody (100 µg/ml, human IgG, Sigma)
Experimental: A gold thin film chip was treated with a mixed solution (65° C.) of 95% sulfuric acid and 30% aqueous hydrogen peroxide (volume ratio 3:1) for 30 minutes, and then the chip was washed sequentially with double distilled water, ethanol and double distilled water. Subsequently, the chip was dried with nitrogen gas and mounted on a BIA-core surface plasmon resonance sensor. 150 μl each of 200 μg/ml solutions of recombinant proteins tagged with one, two and three cysteine residues, respectively, and of an untagged recombinant protein were introduced to the gold thin film surface of the mounted chip at a flow rate of 5 μl/min, so as to immobilize the proteins. After reacting the gold thin film surface and the aforementioned proteins, 100 μl of BSA (3 mg/ml) was introduced at a flow rate of 5 μl/min to prevent non-specific reactions. Subsequently, 100 μl of an antibody (100 μg/ml, human IgG, Sigma) was introduced at a flow rate of 5 μl/min to produce a biosensor in which protein G variant and the antibody were immobilized on a gold thin film, and the changes in the plasmon resonance signals were measured (FIG. 5).

[2] = target: T3, anti-human Kallikrein 3/PSA antibody (R&D systems); assay: SPR (BIAcore); protein G variant layer on gold thin film, anti-PSA antibody 0.5 ug/ml injected
T3 construct: also called antibody against PSA
Experimental: Then, antigens (Recombinant Human kallikrein 3/PSA, 0.5 μg/ml) were reacted with the antibodies. As a result, the change in the surface plasmon resonance signals of the untagged recombinant protein increased by 7 RU, the same change of the recombinant protein tagged with one cysteine residue increased by 49 RU, the same change of the recombinant protein tagged with two cysteine residues increased by 41 RU, and the same change of the recombinant protein tagged with three cysteine residues increased by 74 RU.
A gold thin film chip was treated with a mixed solution (65° C.) of 95% sulfuric acid and 30% aqueous hydrogen peroxide (volume ratio 3:1) for 30 minutes, and then the chip was washed sequentially with double distilled water, ethanol and double distilled water. Subsequently, the chip was dried with nitrogen gas and mounted on a BIA-core surface plasmon resonance sensor. 150 μl each of 200 μg/ml solutions of recombinant proteins tagged with one, two and three cysteine residues, respectively, and of an untagged recombinant protein (control) were introduced to the gold thin film surface of the mounted chip at a flow rate of 5 μl/min, so as to immobilize the proteins. After reacting the gold thin film surface and the aforementioned proteins, 100 μl of BSA (3 mg/ml) was introduced at a flow rate of 5 μl/min to prevent non-specific reactions. Subsequently, 100 μl of an antibody (0.5 μg/ml, anti-human Kallikrein 3/PSA antibody, R&D systems) was introduced at a flow rate of 5 μl/min, and the biosensor with immobilized antibody and 50 μl of an antigen (0.5 μg/ml, Recombinant Human Kallikrein 3/PSA) were allowed to react. Then, changes in the plasmon resonance signal was detected (FIG. 8).

Row | Binder | binding result [1] | change in surface plasmon resonance signal (human IgG (Sigma)) [RU] | fold increase of SPR signal change against the untagged recombinant protein (human IgG (Sigma)) [times] | change in surface plasmon resonance signal [2] [RU]
1 | Streptococcal protein G variant tagged with one cysteine residue at the N-terminus (other, Immobilised by its thiol group on gold film, gold nano-particles or maleimide glass; also called cys1-G; protein produced from plasmid pET-cys1-L-proteinG) MCDDDDKLKGETTTEAVDAATAEKVFKQYANDNGVDGEWTYDDATKTFTVTETYKLVIDGKTLKGETTTKAVDAETAEKAFKQYADDDGVDGVWTYDDATKTFTVTEHHHHHH | no binding (tested: 1 mg/ml) | 4000 | ~4 | 472
2 | Streptococcal protein G variant tagged with two cysteine residues at the N-terminus (other, Immobilised by its thiol groups on gold film, gold nano-particles or maleimide glass; also called cys2-G; protein produced from plasmid pET-cys2-L-proteinG) MCCDDDDKLKGETTTEAVDAATAEKVFKQYANDNGVDGEWTYDDATKTFTVTETYKLVIDGKTLKGETTTKAVDAETAEKAFKQYADDDGVDGVWTYDDATKTFTVTEHHHHHH | no binding (tested: 1 mg/ml) | 3200 | ~3.2 | 376
3 | Streptococcal protein G variant tagged with three cysteine residues at the N-terminus (other, Immobilised by its thiol groups on gold film, gold nano-particles or maleimide glass; also called cys3-G; protein produced from plasmid pET-cys3-L-proteinG) MCCCDDDDKLKGETTTEAVDAATAEKVFKQYANDNGVDGEWTYDDATKTFTVTETYKLVIDGKTLKGETTTKAVDAETAEKAFKQYADDDGVDGVWTYDDATKTFTVTEHHHHHH | no binding (tested: 1 mg/ml) | 4800 | ~4.8 | 491

Reference: patent US20100173430A1 (KOREAN RESEARCH INSTITUTE OF BIOSCIENCE AND BIOTECHNOLOGY, published 2010)
